Assay results as given in article PMC9482650, “Quantitative fragmentomics allow affinity mapping of interactomes” (Nature Communications, 2022).

T1: PDZD2_2, O15018
T1 sequence (O15018 329-429, limits assumed, looked up): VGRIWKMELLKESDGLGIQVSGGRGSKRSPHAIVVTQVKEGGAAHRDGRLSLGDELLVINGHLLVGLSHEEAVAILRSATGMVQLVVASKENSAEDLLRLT

T2: TX1BP3, O14907
T2 sequence (O14907 10-122, limits assumed, looked up): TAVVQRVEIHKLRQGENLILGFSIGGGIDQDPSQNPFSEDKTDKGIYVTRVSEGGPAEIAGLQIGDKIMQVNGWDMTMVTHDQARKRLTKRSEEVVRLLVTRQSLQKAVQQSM

T3: HTRA3, P83110
T3 sequence (P83110 354-453, limits assumed, looked up): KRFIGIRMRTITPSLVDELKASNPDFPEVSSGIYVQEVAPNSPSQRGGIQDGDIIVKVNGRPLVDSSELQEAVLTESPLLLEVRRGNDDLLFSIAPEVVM

T4: SYNJ2BP, P57105
T4 sequence (P57105 8-110, limits assumed, looked up): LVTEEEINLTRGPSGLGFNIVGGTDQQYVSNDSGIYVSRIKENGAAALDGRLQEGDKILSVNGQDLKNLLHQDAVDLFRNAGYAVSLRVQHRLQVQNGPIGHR

T5: DFNB31_2, Q9P202
T5 sequence (Q9P202 274-371, limits assumed, looked up): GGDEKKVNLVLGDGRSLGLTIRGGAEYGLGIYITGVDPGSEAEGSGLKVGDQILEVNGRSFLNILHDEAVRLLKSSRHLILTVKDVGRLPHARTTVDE

T6: LIN7A, O14910
T6 sequence (O14910 103-200, limits assumed, looked up): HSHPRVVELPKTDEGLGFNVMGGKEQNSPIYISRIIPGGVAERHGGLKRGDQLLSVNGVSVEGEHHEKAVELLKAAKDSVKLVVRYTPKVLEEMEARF

T7: GRIP1_7, Q9Y3R0
T7 sequence (Q9Y3R0 999-1096, limits assumed, looked up): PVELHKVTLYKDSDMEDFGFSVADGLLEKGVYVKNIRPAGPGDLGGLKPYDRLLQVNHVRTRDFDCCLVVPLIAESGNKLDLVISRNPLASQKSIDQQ

T8: ARHGAP21, Q5T5U3
T8 sequence (Q5T5U3 45-169, limits assumed, looked up): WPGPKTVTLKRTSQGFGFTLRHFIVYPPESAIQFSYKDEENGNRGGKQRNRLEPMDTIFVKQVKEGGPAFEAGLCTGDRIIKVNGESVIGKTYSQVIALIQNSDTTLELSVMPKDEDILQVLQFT


How the values were obtained:
Experiment in all cases: holdup assay
Set-up in all cases: key: below the threshold = too weak to quantify, mostly under pKd 3.1 to 4
Conditions in all cases: plain residues with an end cap or a label only (N-terminal biotin on a linker: ado-ado)
[1] = molecular target: T1, PDZD2_2, O15018
[2] = molecular target: T2, TX1BP3, O14907
[3] = molecular target: SCRIB_2, Q14160
SCRIB_2, Q14160, sequence (Q14160 857-960): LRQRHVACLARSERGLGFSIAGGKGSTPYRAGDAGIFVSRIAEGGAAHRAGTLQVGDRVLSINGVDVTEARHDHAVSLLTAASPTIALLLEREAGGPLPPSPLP

[4] = molecular target: GRIP2_3, Q9C0E4
GRIP2_3, Q9C0E4, sequence (Q9C0E4 238-339): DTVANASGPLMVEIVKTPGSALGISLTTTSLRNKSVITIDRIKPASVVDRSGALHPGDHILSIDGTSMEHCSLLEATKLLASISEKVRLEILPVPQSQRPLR

[5] = molecular target: IL16_3, Q14005
IL16_3, Q14005, sequence (Q14005 1107-1207): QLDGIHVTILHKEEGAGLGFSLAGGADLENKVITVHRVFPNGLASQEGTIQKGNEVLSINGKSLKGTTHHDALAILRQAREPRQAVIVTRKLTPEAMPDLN

[6] = molecular target: T3, HTRA3, P83110
[7] = molecular target: DLG4_3, P78352
DLG4_3, P78352, sequence (P78352 306-403): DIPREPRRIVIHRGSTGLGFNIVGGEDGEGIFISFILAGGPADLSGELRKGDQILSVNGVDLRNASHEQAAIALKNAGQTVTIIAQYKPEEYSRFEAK

[8] = molecular target: Inadl_5, Q8NI35
Inadl_5, Q8NI35, sequence (Q8NI35 673-780): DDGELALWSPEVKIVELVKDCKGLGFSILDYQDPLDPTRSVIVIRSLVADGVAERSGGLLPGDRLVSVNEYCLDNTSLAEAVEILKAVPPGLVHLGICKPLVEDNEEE

[9] = molecular target: LNX1_2, Q8TBB1
LNX1_2, Q8TBB1, sequence (Q8TBB1 371-470): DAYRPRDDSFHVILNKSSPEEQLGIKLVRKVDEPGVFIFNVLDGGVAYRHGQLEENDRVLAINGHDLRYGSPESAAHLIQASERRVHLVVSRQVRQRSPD

[10] = molecular target: T4, SYNJ2BP, P57105
[11] = molecular target: T5, DFNB31_2, Q9P202
[12] = molecular target: Inadl_10, Q8NI35
Inadl_10, Q8NI35, sequence (Q8NI35 1673-1763): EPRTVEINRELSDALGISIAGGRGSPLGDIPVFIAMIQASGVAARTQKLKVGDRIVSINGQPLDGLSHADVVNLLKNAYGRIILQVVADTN

[13] = molecular target: FRMPD4, Q14CM0
FRMPD4, Q14CM0, sequence (Q14CM0 67-160): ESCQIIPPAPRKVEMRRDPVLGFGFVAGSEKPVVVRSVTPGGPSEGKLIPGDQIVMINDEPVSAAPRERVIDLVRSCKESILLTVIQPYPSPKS

[14] = molecular target: GORASP1, Q9BQQ3
GORASP1, Q9BQQ3, sequence (Q9BQQ3 1-208): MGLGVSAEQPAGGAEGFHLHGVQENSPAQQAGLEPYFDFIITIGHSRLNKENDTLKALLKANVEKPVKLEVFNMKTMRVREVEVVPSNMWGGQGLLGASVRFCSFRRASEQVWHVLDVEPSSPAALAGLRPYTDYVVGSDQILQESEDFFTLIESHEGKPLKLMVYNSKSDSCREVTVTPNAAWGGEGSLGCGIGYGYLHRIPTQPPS

[15] = molecular target: MAGI3_2, Q5TCQ9
MAGI3_2, Q5TCQ9, sequence (Q5TCQ9 398-503): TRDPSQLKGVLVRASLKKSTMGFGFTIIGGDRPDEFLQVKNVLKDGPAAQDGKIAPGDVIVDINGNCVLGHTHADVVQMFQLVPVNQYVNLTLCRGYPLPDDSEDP

[16] = molecular target: MAGI2_3, Q86UL8
MAGI2_3, Q86UL8, sequence (Q86UL8 600-682): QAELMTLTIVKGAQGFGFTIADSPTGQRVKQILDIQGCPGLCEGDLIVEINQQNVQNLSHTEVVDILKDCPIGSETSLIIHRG

[17] = molecular target: DLG2_2, Q15700
DLG2_2, Q15700, sequence (Q15700 189-283): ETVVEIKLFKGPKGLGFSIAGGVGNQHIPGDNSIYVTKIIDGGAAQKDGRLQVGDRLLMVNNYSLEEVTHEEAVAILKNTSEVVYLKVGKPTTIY

[18] = molecular target: MAGI2_5, Q86UL8
MAGI2_5, Q86UL8, sequence (Q86UL8 915-1017): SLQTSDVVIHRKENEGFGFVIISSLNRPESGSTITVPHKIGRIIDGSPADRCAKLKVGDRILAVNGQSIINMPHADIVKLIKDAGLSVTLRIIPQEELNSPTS

[19] = molecular target: HTRA1, Q92743
HTRA1, Q92743, sequence (Q92743 360-477): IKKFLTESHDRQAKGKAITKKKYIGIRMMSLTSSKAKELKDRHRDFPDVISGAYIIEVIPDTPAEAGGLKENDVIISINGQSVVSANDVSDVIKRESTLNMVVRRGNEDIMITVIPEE

[20] = molecular target: T6, LIN7A, O14910
[21] = molecular target: Inadl_2, Q8NI35
Inadl_2, Q8NI35, sequence (Q8NI35 238-335): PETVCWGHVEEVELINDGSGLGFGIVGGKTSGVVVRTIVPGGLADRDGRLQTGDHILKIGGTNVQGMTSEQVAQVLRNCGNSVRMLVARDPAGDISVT

[22] = molecular target: TJP1_2, Q07157
TJP1_2, Q07157, sequence (Q07157 181-274): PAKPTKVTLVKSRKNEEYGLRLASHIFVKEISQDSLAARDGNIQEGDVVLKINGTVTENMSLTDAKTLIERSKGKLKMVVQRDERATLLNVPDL

[23] = molecular target: DLG5_1, Q8TDM6
DLG5_1, Q8TDM6, sequence (Q8TDM6 617-713): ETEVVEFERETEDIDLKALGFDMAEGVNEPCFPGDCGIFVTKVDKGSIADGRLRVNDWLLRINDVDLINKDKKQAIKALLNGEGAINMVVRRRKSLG

[24] = molecular target: PICK1, Q9NRD5
PICK1, Q9NRD5, sequence (Q9NRD5 17-115): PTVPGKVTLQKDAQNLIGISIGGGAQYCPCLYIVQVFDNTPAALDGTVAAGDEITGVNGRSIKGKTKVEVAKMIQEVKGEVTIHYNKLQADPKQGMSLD

[25] = molecular target: FRMPD2_1, Q68DX3
FRMPD2_1, Q68DX3, sequence (Q68DX3 770-861): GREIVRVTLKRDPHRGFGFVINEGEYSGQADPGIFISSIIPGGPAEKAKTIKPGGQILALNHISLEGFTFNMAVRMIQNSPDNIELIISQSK

[26] = molecular target: T7, GRIP1_7, Q9Y3R0
[27] = molecular target: Inadl_8, Q8NI35
Inadl_8, Q8NI35, sequence (Q8NI35 1425-1530): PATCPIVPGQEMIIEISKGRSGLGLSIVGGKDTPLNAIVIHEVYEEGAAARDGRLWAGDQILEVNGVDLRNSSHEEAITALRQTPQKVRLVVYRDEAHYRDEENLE

[28] = molecular target: T8, ARHGAP21, Q5T5U3
[29] = molecular target: GRID2IP_2, A4D2P6
GRID2IP_2, A4D2P6, sequence (A4D2P6 272-370): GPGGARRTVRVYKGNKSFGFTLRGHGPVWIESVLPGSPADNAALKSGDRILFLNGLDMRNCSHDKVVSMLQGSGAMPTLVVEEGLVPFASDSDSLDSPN

| pKd [1] | pKd [2] | pKd [3] | pKd [4] | pKd [5] | pKd [6] | pKd [7] | pKd [8] | pKd [9] | pKd [10] | pKd [11] | pKd [12] | pKd [13] | pKd [14] | pKd [15] | pKd [16] | pKd [17] | pKd [18] | pKd [19] | pKd [20] | Binder | further results |
| --- | --- | --- | --- | --- | --- | --- | --- | --- | --- | --- | --- | --- | --- | --- | --- | --- | --- | --- | --- | --- | --- |
| below the threshold | below the threshold | below the threshold | below the threshold | below the threshold | below the threshold | below the threshold | below the threshold | below the threshold | below the threshold | below the threshold | below the threshold | below the threshold | below the threshold | below the threshold | below the threshold | below the threshold | below the threshold | 3.5 | below the threshold | LETREPTNTL [GRIP1, Q9Y3R0] | pKd [21]: below the threshold; pKd [22]: below the threshold; pKd [23]: below the threshold; pKd [24]: below the threshold; pKd [25]: below the threshold; pKd [26]: below the threshold; pKd [27]: below the threshold; pKd [28]: 4.04; pKd [29]: below the threshold |
| 3.77 | below the threshold | below the threshold | below the threshold | below the threshold | below the threshold | below the threshold | below the threshold | below the threshold | below the threshold | below the threshold | below the threshold | below the threshold | 3.76 | below the threshold | below the threshold | below the threshold | below the threshold | 5.05 | below the threshold | PDGEMMEVLI [AMOTL1, Q8IY63] | pKd [21]: 4.27; pKd [22]: below the threshold; pKd [23]: below the threshold; pKd [24]: below the threshold; pKd [25]: below the threshold; pKd [26]: below the threshold; pKd [27]: below the threshold; pKd [28]: 3.53; pKd [29]: below the threshold |
